{"source": "paper doi:10.1101/2024.04.20.590211", "about": "(bioRxiv, 2024)", "binders": {"B1": {"name": "hANP32A 144-249 (LCAR alone) (domain or fragment)", "chain": "YLDGYDRDDKEAPDSDAEGYVEGLDDEEEDEDEEEYDEDAQVVEDEEDEDEEEEGEEEDVSGEEEEDEEGYNDGEVDDEEDEEELGEEERGQKRKREPEDEGEDDD"}}, "molecular_target": "FluPolB, influenza B/Memphis/2003 polymerase heterotrimer (wild type) (influenza B virus B/Memphis/2003, UniProt Q5V8Z9;Q5V8Y6;Q5V8X3)", "test": "SEC", "data": [{"binder": "B1", "values": [{"measurement": "binding result", "value": "binds"}]}]}
